Source: US20210221911A1 (NATIONAL CANCER CENTER JAPAN, published 2021)

How the values were obtained:
[1] = molecular target: T1, recombinant human tissue factor (rhTF), residues 33 to 251 of hTF with C-terminal His6 tag (human, UniProt P13726 33-251); test: SPR, ratio of koff values, reference 1849ADC
T1 construct: range 33-251; also called rhTF antigen
Method: (§1) SPR measurement was performed by using BiaCore T200 (GE Healthcare). The recombinant human tissue factor antigen (rhTF antigen) was subjected to buffer exchange to 10 mM sodium acetate solution (pH 5.0) and the final protein concentration was adjusted to 2 to 10 μg/mL. Subsequently, contact time was set to 30 seconds and the antigen was immobilized on a CM5 sensor chip (GE Healthcare) according to a basic protocol by using amine coupling. Then, 5 dilution series of the antibody solution were prepared by diluting each ADC solution in DPBS so that the final concentrations thereof became 320 nM, 160 nM, 80 nM, 40 nM, and 20 nM.

[2] = molecular target: T1, recombinant human tissue factor (rhTF), …; test: SPR, Biacore T200, rhTF on CM5 chip, single-cycle kinetics, bivalent analyte model
Method: as §1

[3] = molecular target: recombinant human tissue factor (rhTF, SEQ ID NO: 13) (human, UniProt P13726 33-251); test: ELISA screen of hybridomas on solid-phase rhTF
Excerpt: (§2) Recombinant human tissue factor micellized using FCA adjuvant (rhTF, SEQ ID NO: 13) was intraperitoneally administered to Wister rats. After several immunizations, rat antisera were examined by ELISA using a solid phase having rhTFs thereon. A spleen was excised from a rat individual that had shown an increased antibody titer and splenocytes were obtained therefrom. The splenocytes and p3X63 mouse myeloma cells were fused by a PEG technique and cultivated in a HAT culture medium to select hybridoma cells. The hybridoma cells were screened to select those that reacted positively to rhTFs in ELISA and also reacted positively to cells expressing human tissue factor strongly such as an MCF7 cell in flow cytometry analysis. The selected hybridoma cells were cloned by limiting dilution to establish hybridoma cell clones that produced anti-tissue factor antibodies.

[4] = molecular target: T2, human tissue factor on cells expressing it strongly such as MCF7 cells (human, UniProt P13726 33-295); test: flow cytometry screen of hybridomas on cells expressing TF
T2 construct: whole, on cells; also called TF
Excerpt: as §2

| Binder | koff relative to 1849ADC [1] [times] | Kd [2] [nM] | koff [2] [s⁻¹] | kon [2] [M⁻¹ s⁻¹] | binding result [3] | binding result [4] |
| --- | --- | --- | --- | --- | --- | --- |
| 1084ADC (ADC composed of the monoclonal antibody produced by clone No. 1084 and monomethyl auristatin E) (antibody, V domains shown, MMAE joined through a maleimide-PEG12-Val-Cit-PABA linker to sulfhydryl groups of the reduced antibody; sites and number not stated, Whole rat monoclonal antibody from a rat-mouse hybridoma, conjugated to MMAE) VH: QVQLKESGPGLVQPSQTLSLTCIVSGFSLTNYNVHWVRQPAGAGLEWMGVIWTDGKTDYNSTLQSRLSISRDTSKSQVFLKMNSLQAEDIATYYCARDWDTGFDYWGQGVMVTVSS VL: DIKMTQSPSSLSASLGERVTISCRASENINNILAWYQKKEDGSVKLLIHYTSNLQSGVPSRFSGSGSGKDYSLTISGLESEDIATYYCQQAYTPYAFGAGTKLELK | 39.3 | 35 | 0.000825 | 26100 | – | – |
| monoclonal antibody produced by clone No. 1084 (antibody, V domains shown) VH: QVQLKESGPGLVQPSQTLSLTCIVSGFSLTNYNVHWVRQPAGAGLEWMGVIWTDGKTDYNSTLQSRLSISRDTSKSQVFLKMNSLQAEDIATYYCARDWDTGFDYWGQGVMVTVSS VL: DIKMTQSPSSLSASLGERVTISCRASENINNILAWYQKKEDGSVKLLIHYTSNLQSGVPSRFSGSGSGKDYSLTISGLESEDIATYYCQQAYTPYAFGAGTKLELK | – | – | – | – | binds | binds |
